# Results from paper PMC7691336.
# Where “and” joins values, the source holds several entries; their conditions need not be identical. Equal entries are not always repeated.
# Columns and labels:
# [1] = target: cardiac ryanodine receptor (RyR2) V3599K, knock-in mouse heart (mouse (endogenous in cardiac homogenates)) (UniProt E9Q401); experiment: cross-linking; CaM-SANPAH at rising concentrations (to 1024 nM; also 3000) mixed with mouse cardiac homogenates (1 mg/mL) in 150 mmol/L KCl, 10 umol/L CaCl2, 20 mmol/L MES pH 6.8; 10 min binding, UV cross-linking, anti-CaM blot of the 550 kDa band; binding as ratio to the maximum; one Kd for each heart; hearts of sham-operated mice
# [2] = target: cardiac ryanodine receptor (RyR2), wild type, mouse heart (mouse (endogenous in cardiac homogenates)) (UniProt E9Q401); experiment: as above
# [3] = target: cardiac ryanodine receptor (RyR2) V3599K, knock-in mouse heart (mouse (endogenous in cardiac homogenates)) (UniProt E9Q401); experiment: cross-linking; CaM-SANPAH at rising concentrations (to 1024 nM; also 3000) mixed with mouse cardiac homogenates (1 mg/mL) in 150 mmol/L KCl, 10 umol/L CaCl2, 20 mmol/L MES pH 6.8; 10 min binding, UV cross-linking, anti-CaM blot of the 550 kDa band; binding as ratio to the maximum; one Kd for each heart; hearts 2 weeks after transverse aortic constriction (TAC 2W)
# [4] = target: cardiac ryanodine receptor (RyR2), wild type, mouse heart (mouse (endogenous in cardiac homogenates)) (UniProt E9Q401); experiment: as above
substance,measurement,setting,value
CaM-SANPAH conjugate (recombinant calmodulin) (from UniProt P0DP23 1-149) (natural protein),Kd,[1],47.4 nM and 51.6 nM (2×) and 74.2 nM
same,Kd,[2],61.4 nM and 66.9 nM and 54.7 nM (2×)
same,Kd,[3],55.9 nM and 44.2 nM and 82.9 nM
same,Kd,[4],118 nM and 151 nM and 139 nM
